Read-outs that look alike come from different tables or passages of the source.
Tests used:
[1] = target: T1, recombinant human IL-6 (human, UniProt P05231 30-212); test: cell-based or functional assay
[2] = target: T2, endogenous human IL-6 produced by human synovial fibroblasts (human, UniProt P05231 30-212); test: cell-based or functional assay
[3] = target: T1, recombinant human IL-6; test: ELISA, E. coli derived recombinant human IL-6 as capture reagent; drawn table 'Avg EC50 (pM)', n = 4
[4] = target: endogenous human IL-6 produced by human synovial fibroblasts (human) (UniProt P05231)
Chain of endogenous human IL-6 produced by human synovial fibroblasts (human) (P05231 30-212): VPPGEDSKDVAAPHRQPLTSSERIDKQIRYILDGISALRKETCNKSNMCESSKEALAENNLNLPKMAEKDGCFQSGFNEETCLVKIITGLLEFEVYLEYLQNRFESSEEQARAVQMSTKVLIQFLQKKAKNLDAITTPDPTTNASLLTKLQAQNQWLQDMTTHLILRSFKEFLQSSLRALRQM

[5] = target: endogenous human IL-6 produced by human synovial fibroblasts (human) (UniProt P05231); test: cell-based or functional assay
[6] = target: T3, human FcRn (human, UniProt P55899 24-297; P61769 21-119, limits assumed); test: BIAcore, pH 6
T3 construct: also called huFcRn

[7] = target: T4, cynomolgus FcRn (cynomolgus, UniProt Q8SPV9 24-297; Q8SPW0 21-119, limits assumed); test: BIAcore, pH 6
T4 construct: also called cynoFcRn; cyno FcRn
T4 sequence (Q8SPV9 24-297 limits assumed, chain 1 of 2): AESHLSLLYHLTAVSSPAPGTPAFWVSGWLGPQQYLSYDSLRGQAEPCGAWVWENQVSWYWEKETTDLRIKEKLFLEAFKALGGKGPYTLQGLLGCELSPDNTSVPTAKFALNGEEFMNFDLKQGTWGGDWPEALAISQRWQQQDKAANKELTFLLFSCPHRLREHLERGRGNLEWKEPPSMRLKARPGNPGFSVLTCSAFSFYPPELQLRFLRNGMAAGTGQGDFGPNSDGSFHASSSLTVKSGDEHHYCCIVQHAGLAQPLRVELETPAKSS
T4 sequence (Q8SPW0 21-119 limits assumed, chain 2 of 2): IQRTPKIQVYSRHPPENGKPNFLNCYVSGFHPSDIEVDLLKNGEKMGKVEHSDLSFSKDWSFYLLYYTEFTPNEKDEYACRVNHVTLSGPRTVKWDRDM

[8] = target: T1, recombinant human IL-6; test: cell-based or functional assay; remark: listed apart in the source
[9] = target: T1, recombinant human IL-6; test: ELISA, E. coli expressed rhuIL-6 as capture reagent
Protocol: ELISA assays were performed according to standard protocols.

[10] = target: T1, recombinant human IL-6; test: BIAcore; Example 1 summarises WO 2008/065378; BIAcore; bound at the assay's detection level
[11] = target: T1, recombinant human IL-6; test: affinity estimated from the TF-1 Cell Proliferation Assay (cell-based, not a direct binding assay); Example 1 summarises WO 2008/065378; estimated from the TF-1 Cell Proliferation Assay, not BIAcore
[12] = target: T2, endogenous human IL-6 produced by human …; test: cell-based or functional assay; remark: listed apart in the source

IC50, inhibition of IL-6 induced TF-1 cell proliferation [1] [nM] | IC50, inhibition of endogenous IL-6 induced VEGF release from human synovial fibroblasts [2] [nM] | EC50 [3] [nM] | IC50, inhibition of endogenous IL-6 induced VEGF release from human synovial fibroblasts [4] [nM] | IC50, inhibition of endogenous IL-6 induced VEGF release from human synovial fibroblasts [5] [nM] | Kd [6] [nM] | Kd [7] [nM] | IC50, inhibition of IL-6 induced TF-1 cell proliferation [8] [nM] | EC50 [9] [nM] | Kd [10] [nM] | Kd [11] [nM] | IC50, inhibition of endogenous IL-6 induced VEGF release from human synovial fibroblasts [12] [nM] | Binder
0.0059 | 2.8 | 0.0078 | – | – | – | – | – | – | – | – | – | IL-6 antibody A (antibody, V domains shown) VH: QEQLVESGGGLVQPEGSLTLTCIASGWSFSSSHYMCWVRQAPGKGLEWIGCIYTGSGMTYYASWAKGRFTISKTSSTTVTLQMTSLTAADTATYFCARKIGGTDDYGDSLYFSLWGQGTLVTVSS VL: AQVLTQTPSPVSAAVGGTVTINCQASQSVYNNSKLAWYQQKPGQPPKLLIYKASSLASGVSSRFKGSGSGTQFTLTISGVQCDDAATYYCQHEFSCSSADCVAFGGGTEVVVKG
– | – | – | 1.3 | 0.0013 | 2610 | 1160 | 0.0045 | 0.0061 | < 0.01 | 0.0004 | – | Antibody 18 (antibody, V domains shown, Human anti-IL-6 IgG1 with a wild type Fc region; It is the parent of Antibody 18E; also called Ab 18) VH: EVQLVESGGGLVQPGGSLRLSCAASGFTISSNYMIWVRQAPGKGLEWVSDLYYYAGDTYYADSVKGRFTMSRDISKNTVYLQMNSLRAEDTAVYYCARWADDHPPWIDLWGRGTLVTVSS VL: DIQMTQSPSTLSASVGDRVTITCRASQGISSWLAWYQQKPGKAPKVLIYKASTLESGVPSRFSGSGSGTEFTLTISSLQPDDFATYYCQQSWLGGSFGQGTKLEIK
0.0781 | 2.2 | 0.0141 | – | – | – | – | – | – | – | – | – | IL-6 antibody B (antibody, V domains shown) VH: QSVEESGGRLVTPGTPLTLTCTVSGFSLSAYDMYWVRQAPGKGLEWIGITYGSGKTYYARWAKGRFTISKTSTTVALKITSPTTEDTATYFCARDSGYPGGSSAYNLWGQGTLVTVSS VL: AAVLTQTPSAVSAAVGGTVTISCQSSQSVTVNNDLAWYQQRPGQPPKLLIYRASNLASRVPSRFSGSGSGTQFTLTISGVQCDDAATYYCLGGYDDDASNAFGGGTEVVVKG
– | 0.0012 | – | – | – | 226 | 365 | 0.0052 | 0.0065 | – | – | 0.0012 | Antibody 18E (antibody, human IgG1, kappa, Antibody 18 with the M252Y, S254T and T256E substitutions (EU index) in the IgG1 Fc region; Expressed in CHO-K1 cells; also called Ab 18E) heavy: EVQLVESGGGLVQPGGSLRLSCAASGFTISSNYMIWVRQAPGKGLEWVSDLYYYAGDTYYADSVKGRFTMSRDISKNTVYLQMNSLRAEDTAVYYCARWADDHPPWIDLWGRGTLVTVSSASTKGPSVFPLAPSSKSTSGGTAALGCLVKDYFPEPVTVSWNSGALTSGVHTFPAVLQSSGLYSLSSVVTVPSSSLGTQTYICNVNHKPSNTKVDKRVEPKSCDKTHTCPPCPAPELLGGPSVFLFPPKPKDTLYITREPEVTCVVVDVSHEDPEVKFNWYVDGVEVHNAKTKPREEQYNSTYRVVSVLTVLHQDWLNGKEYKCKVSNKALPAPIEKTISKAKGQPREPQVYTLPPSREEMTKNQVSLTCLVKGFYPSDIAVEWESNGQPENNYKTTPPVLDSDGSFFLYSKLTVDKSRWQQGNVFSCSVMHEALHNHYTQKSLSLSPGK light: DIQMTQSPSTLSASVGDRVTITCRASQGISSWLAWYQQKPGKAPKVLIYKASTLESGVPSRFSGSGSGTEFTLTISSLQPDDFATYYCQQSWLGGSFGQGTKLEIKRTVAAPSVFIFPPSDEQLKSGTASVVCLLNNFYPREAKVQWKVDNALQSGNSQESVTEQDSKDSTYSLSSTLTLSKADYEKHKVYACEVTHQGLSSPVTKSFNRGEC

Reference: patent publication US20120034212A1 (AstraZeneca / MedImmune, published 2012)
